In article doi:10.1101/2020.06.15.153577:

Experiments:
[1] = biological target: Drosophila Shaker channel (ShakerIR) (Drosophila) (UniProt P08510)
ShakerKD (Drosophila) = ShakerKD (Drosophila) (UniProt P08510)

Conkunitzin-C1 (peptide) gave an EC50 of block of K+ currents, two-electrode voltage clamp on Xenopus oocytes [1] of 2200 nM and an EC50 of block of K+ currents, two-electrode voltage clamp on Xenopus oocytes (ShakerKD (Drosophila)) of 108 nM.
Work on Conkunitzin-C3 (peptide) yielded an EC50 of block of K+ currents, two-electrode voltage clamp on Xenopus oocytes [1] of 166 nM and an EC50 of block of K+ currents, two-electrode voltage clamp on Xenopus oocytes (ShakerKD (Drosophila)) of 190 nM.
